This assay deals with opto-DN-CREB. As to the kind of experiment: thermal relaxation kinetics.

For 1 molecule, stoichiometry N results are on record in publication PMC4656143.

By stoichiometry N is commonly meant a count of units in the complex or per binding partner.

B1: CREB-bZIP (domain or fragment)
chain: ARKREVRLMKNREAARECRRKKKEYVKCLENRVAVLENQNKTLIEELKALKDLYCHKSD
B1 registered a stoichiometry N of 1.
